In assay [1] the target is T1, Recombinant Human DLL4 (R&D Systems Cat#1506-D4/CF) (human, UniProt Q9NR61 27-524).
T1 construct: Bought recombinant protein; also called delta-like protein 4; rHuman DLL4
The assay is described as follows: ECL (MSD Multi-Spot) binding assay, antigen spotted on plate; Fab 7.5 nM; blank spot 217.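 Also: blank spot per well as comparator with Hit at signal to blank ratio of 4 or more.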

In assay [2] the target is T2, rHuman Notch-1/Fc Chimera, CF (R&D Systems Cat#3647-TK) (human, UniProt P46531 19-526).
T2 construct: Bought Fc chimera; Fc part of the bought chimera not given
The assay is described as above.

Assay [3] has as its target T3, rHuman CD44/Fc Chimera, CF (R&D Systems Cat#3660-CD) (human, UniProt P16070 21-220).
T3 construct: Bought Fc chimera; Fc part of the bought chimera not given
The assay is described as follows: MSD ECL titration, Fab 0.6 nM, blank 226.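 Also: blank spot per well as comparator with Hit at signal to blank ratio of 4 or more.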

Assay [4] has as its target T4, rHuman EGF R/Fc Chimera, CF (R&D Systems Cat#344-ER) (human, UniProt P00533 25-645).
T4 construct: Bought Fc chimera; Fc part of the bought chimera not given
In words: MSD ECL titration, Fab 0.6 nM, blank 226.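 Also: blank spot per well as comparator with Hit at signal to blank ratio of 4 or more.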

Assay [5] addresses T5, rHuman Erythropoietin R/Fc Chimera, CF (R&D Systems Cat#963-ER) (human, UniProt P19235 25-250).
T5 construct: Bought Fc chimera; also called EPO R/Fc; EPOR; Fc part of the bought chimera not given
T5 sequence: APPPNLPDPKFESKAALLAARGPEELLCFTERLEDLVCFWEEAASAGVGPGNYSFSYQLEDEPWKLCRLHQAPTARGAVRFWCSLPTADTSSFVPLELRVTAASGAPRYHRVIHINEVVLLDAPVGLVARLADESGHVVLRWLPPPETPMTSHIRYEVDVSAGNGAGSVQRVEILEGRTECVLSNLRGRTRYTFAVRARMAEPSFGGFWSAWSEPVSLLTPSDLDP
In words: MSD ECL titration, Fab 0.6 nM, blank 226.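 Also: blank spot per well as comparator with Hit at signal to blank ratio of 4 or more.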

Assay [6] addresses T6, rHuman IGF-1 sR (insulin-like growth factor-1 soluble receptor), CF (R&D Systems Cat#391-GR) (human, UniProt P08069 31-932).
T6 construct: Bought soluble receptor; also called IGF-R1
The assay is described as follows: MSD ECL titration, Fab 0.6 nM, blank 226.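 Also: blank spot per well as comparator with Hit at signal to blank ratio of 4 or more.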

Assay [7] deals with T7, rHuman ErbB2/Fc Chimera, CF (R&D Systems Cat#1129-ER) (human, UniProt P04626 23-652).
T7 construct: Bought Fc chimera; also called HER2/neu; Fc part of the bought chimera not given
In words: MSD ECL titration, Fab 0.6 nM, blank 226.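 Also: blank spot per well as comparator with Hit at signal to blank ratio of 4 or more.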

Assay [8] concerns the target T8, rHuman HGF R/c-MET/Fc Chimera, CF (R&D Systems Cat#358-MT/CF) (human, UniProt P08581 25-932).
T8 construct: Bought Fc chimera; also called HGF R/Fc; Fc part of the bought chimera not given
The assay is described as follows: MSD ECL titration, Fab 0.6 nM, blank 226.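 Also: blank spot per well as comparator with Hit at signal to blank ratio of 4 or more.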

In assay [9] the target is T9, rHuman Notch-1/Fc Chimera, CF (R&D Systems Cat#3647-TK) (human, UniProt P46531 19-526).
T9 construct: Bought Fc chimera; Fc part of the bought chimera not given
In words: MSD ECL titration, Fab 0.6 nM, blank 226.

Assay [10] deals with T10, Recombinant Human DLL4 (R&D Systems Cat#1506-D4/CF) (human, UniProt Q9NR61 27-524).
T10 construct: Bought recombinant protein; also called rHuman DLL4; delta-like protein 4
In words: MSD ECL titration, Fab 0.6 nM, blank 226.

Assay [11] has as its target T11, rHuman P-Cadherin/Fc Chimera, CF (R&D Systems Cat#861-PC) (human, UniProt P22223 108-654).
T11 construct: Bought Fc chimera; Fc part of the bought chimera not given
In words: MSD ECL titration, Fab 0.6 nM, blank 226.

The target in assay [12] is T12, rHuman CD44/Fc Chimera, CF (R&D Systems Cat#3660-CD) (human, UniProt P16070 21-220).
T12 construct: Bought Fc chimera; not shown: Fc of the bought chimera
The assay is described as follows: ECL (MSD multi-spot), antigen on plate, Fab 500 nM.

Assay [13] deals with T13, rHuman P-Cadherin/Fc Chimera, CF (R&D Systems Cat#861-PC) (human, UniProt P22223 108-654).
T13 construct: Bought Fc chimera; also called CDH3; not shown: Fc of the bought chimera
The assay is described as follows: ECL (MSD multi-spot), antigen on plate, Fab 500 nM.

Assay [14] concerns the target T14, rHuman Erythropoietin R/Fc Chimera, CF (R&D Systems Cat#963-ER) (human, UniProt P19235 25-250).
T14 construct: Bought Fc chimera; also called EPO R/Fc; Epo R; not shown: Fc of the bought chimera
T14 sequence: T5 sequence
The assay is described as follows: ECL (MSD multi-spot), antigen on plate, Fab 500 nM.

The target of assay [15] is T15, rHuman EGF R/Fc Chimera, CF (R&D Systems Cat#344-ER) (human, UniProt P00533 25-645).
T15 construct: Bought Fc chimera; also called ErbB-1; not shown: Fc of the bought chimera
In words: ECL (MSD multi-spot), antigen on plate, Fab 500 nM.

The target of assay [16] is T16, rHuman HGF R/c-MET/Fc Chimera, CF (R&D Systems Cat#358-MT/CF) (human, UniProt P08581 25-932).
T16 construct: Bought Fc chimera; also called HGF R/Fc; not shown: Fc of the bought chimera
In words: ECL (MSD multi-spot), antigen on plate, Fab 500 nM.

The target of assay [17] is T17, rHuman Notch-1/Fc Chimera, CF (R&D Systems Cat#3647-TK) (human, UniProt P46531 19-526).
T17 construct: Bought Fc chimera; not shown: Fc of the bought chimera
The assay is described as follows: ECL (MSD multi-spot), antigen on plate, Fab 500 nM.

The target of assay [18] is T18, rHuman IGF-1 sR (insulin-like growth factor-1 soluble receptor), CF (R&D Systems Cat#391-GR) (human, UniProt P08069 31-932).
T18 construct: Bought soluble receptor; also called IGF-R1
In words: ECL (MSD multi-spot), antigen on plate, Fab 500 nM.

Assay [19] has as its target T19, rHuman ErbB2/Fc Chimera, CF (R&D Systems Cat#1129-ER) (human, UniProt P04626 23-652).
T19 construct: Bought Fc chimera; also called HER2/neu; not shown: Fc of the bought chimera
The assay is described as follows: ECL (MSD multi-spot), antigen on plate, Fab 500 nM.

The target of assay [20] is T20, Recombinant Human DLL4 (R&D Systems Cat#1506-D4/CF) (human, UniProt Q9NR61 27-524).
T20 construct: Bought recombinant protein; also called delta-like protein 4
In words: ECL (MSD multi-spot), antigen on plate, Fab 500 nM.

Substitutions are numbered along the chain they refer to.

B1: Fab VH6-1_IGHD3-3*01_IGHJ4*01 & V4-3_IGLJ4*01 (Fab, V domains shown)
VH: QVQLQQSGPGLVKPSQTLSLTCAISGDSVSSNSAAWNWIRQSPSRGLEWLGRTYYRSKWYNDYAVSVKSRITINPDTSKNQFSLQLNSVTPEDTAVYYCAREYYDFWSGYYTDYFDYWGQGTLVTVSS
VL: QPVLTQPTSLSASPGASARLTCTLRSGINLGSYRIFWYQQKPESPPRYLLSYYSDSSKHQGSGVPSRFSGSKDASSNAGILVISGLQSEDEADYYCMIWHSSASFVFGGGTQLIIL
notes: Tested as a Fab made in E. coli; also called IGHV6-1*01
On to B1, for which the ECL signal was 598 in assay [1] and 392 in assay [2].

B2: Fab VH1-46_IGHD6-6*01_IGHJ1*01 & L6_IGKJ1*01 (Fab, V domains shown)
VH: QVQLVQSGAEVKKPGASVKVSCKASGYTFTSYYMHWVRQAPGQGLEWMGIINPSGGSTSYAQKFQGRVTMTRDTSTSTVYMELSSLRSEDTAVYYCAREEYSSSSAEYFQHWGQGTLVTVSS
VL: not shown
notes: Expressed in E. coli as Fab: heavy chain with CH1 plus Flag and His tags from Plasmid A, kappa light chain constant region from Plasmid C; also called Fab No. 1
In the case of B2, the ECL signal in assay [3] was 238; in [4], 309; in [5], 337; in assay [6] it was 313; in assay [7] it was 215; in assay [8], 256. The ECL signal in [9] turned out to be 337; in assay [10], 508; in [11] it was 321.

B3: Fab VH1-46_IGHD6-6*01_IGHJ1*01_S102A_S103P_S104Y_H111Y & L6_IGKJ1*01 (Fab, V domains shown)
VH: B2 VH with S102A, S103P, S104Y, H111Y
VL: not shown
notes: Fab made in E. coli; The heavy chain also carries CH1 with Flag and His tags from Plasmid A, and the light chain carries kappa CL from Plasmid C
B3: the ECL signal is 604 ECL signal in assay [12]; 1200 ECL signal in assay [13]; 1270 ECL signal in [14]; 758 ECL signal in assay [15]; 841 ECL signal in [16]; 689 ECL signal in assay [17]. Moreover, the ECL signal in [18] came out at 747 ECL signal; in assay [19], 596 ECL signal; in assay [20], 106000 ECL signal.
